From US20110154538A1 (UNITED STATES OF AMERICA AS REPRESENTED BY THE SECRETARY OF …, published 2011)

Target: T1, Gal4 activation domain (AD) negative control (UniProt P04386 768-881)
T1 sequence: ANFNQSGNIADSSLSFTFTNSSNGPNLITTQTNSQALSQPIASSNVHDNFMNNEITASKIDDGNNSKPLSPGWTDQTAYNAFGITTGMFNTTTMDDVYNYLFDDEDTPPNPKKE
Test: yeast two-hybrid, growth on selective medium

B1: AltMV-Po coat protein (other)
chain: MSTPFPQVTQEQIDAFTPHTTSNLLPSPEQLTTIASLLVAAKVPAASTTTIALELVNFCYDNGSSAYTVVVGPSSISGVSLSQVANIVKASGTSLRKFCRFFAPIIWNLRTDKTPPANWEANGFKPTEKFAAFDFFDGVENPAAMQPPGGLVRAPSQAERIANATNKQVNLFQAAAQDNNFASNSAFITKGQLSSNSPTIQYLPPPE
notes: also called AltMV-Po CP; CP-Po
binding result: no binding
